Test: protein stability index of a GFP-peptide fusion (GPS, HEK-293T) (PSI 1-6); higher = more stable
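Further: lentivirally expressed fusions sorted by FACS into six bins by GFP to DsRed ratio, PSI derived from sequencing read proportions per bin multiplied by bin number.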

B1: SPSB4 WT (peptide)
chain: LDMDEGTLSFIVDGQYLGVAFRGL
With B1 the protein stability index (parent: IOH6956_31, c terminus: a fixed tail appended) was 2.49.

B2: MYBL2 WT (peptide)
chain: IAKHLKGRLGKQCRERWHNHLNPE
Work on B2 yielded a protein stability index (parent: IOH6886_19, c terminus: a fixed tail appended) of 1.82.

B3: ZNF649 WT (peptide)
chain: EHERAHRGEKPHGCSLCGKAFYKR
With B3 the protein stability index (parent: IOH7272_38, c terminus: a fixed tail appended) was 2.1.

B4: ZNF649 WT (peptide)
chain: LTEHKRIHTGKKPHVCSLCGKAFY
B4 gave a protein stability index (parent: IOH7272_33, c terminus: a fixed tail appended) of 2.52.

B5: EPB41L3 WT (peptide)
chain: KKFLTLGSKFRYSGRTQAQTRRAS
B5 showed a protein stability index (parent: IOH6638_67, c terminus: a fixed tail appended) of 2.96.

B6: ZNF649 WT (peptide)
chain: YHTGKTPFVCPECGQPCSQKSGLI
In the case of B6, the protein stability index (parent: IOH7272_62, c terminus: a fixed tail appended) is reported as 1.66.

B7: TIA1 WT (peptide)
chain: TYECRCIGEEKEMWNFGEKYARF
With B7 the protein stability index (parent: IOH10042_33, c terminus: native) was 1.9.

B8: EPB41L3 WT (peptide)
chain: SDYISEFRFAPNHTKELEDKVIEL
Work on B8 yielded a protein stability index (parent: IOH6638_42, c terminus: a fixed tail appended) of 2.07.

B9: MYBL2 WT (peptide)
chain: FSPSQFLNFWNKQDTLELESPSLT
Protein B9 has a protein stability index (parent: IOH6886_76, c terminus: a fixed tail appended) of 2.12.

B10: ZNF649 WT (peptide)
chain: LVAHQRYHTGKTPFVCPECGQPCS
Work on B10 yielded a protein stability index (parent: IOH7272_61, c terminus: a fixed tail appended) of 3.29.

B11: FAM107A WT (peptide)
chain: LQRVLEHRRRNQLIKKKKEELEAK
B11 gave a protein stability index (parent: IOH10203_12, c terminus: a fixed tail appended) of 3.41.

B12: ZNF649 WT (peptide)
chain: MTKAQESLTLEDVAVDFTWEEWQF
B12 gave a protein stability index (parent: IOH7272_1, c terminus: a fixed tail appended) of 3.04.

B13: TRIM43 WT (peptide)
chain: YQEIFQQLQRSWVKMDQKSKHLKE
B13 gave a protein stability index (parent: IOH10304_35, c terminus: a fixed tail appended) of 2.05.

B14: ZBTB22 WT (peptide)
chain: HTGLKPYECGVCAKKFMWRDSFMR
With B14 the protein stability index (parent: IOH10718_90, c terminus: a fixed tail appended) was 2.3.

B15: TRIM14 WT (peptide)
chain: REQADSCREQLDIMNDLSNRVWSI
Protein B15 has a protein stability index (parent: IOH6488_25, c terminus: a fixed tail appended) of 2.18.

B16: FAM107A WT (peptide)
chain: HRRGLGVDSKPELQRVLEHRRRNQ
B16 gave a protein stability index (parent: IOH10203_10, c terminus: a fixed tail appended) of 3.91.

B17: ZNF649 WT (peptide)
chain: DECEKAYFYMSCLVKHKRIHSREK
With B17 the protein stability index (parent: IOH7272_73, c terminus: a fixed tail appended) was 2.53.

B18: MYBL2 WT (peptide)
chain: FPNRTDQQCQYRWLRVLNPDLVKG
Protein B18 has a protein stability index (parent: IOH6886_11, c terminus: a fixed tail appended) of 2.01.

B19: CDC25B WT (peptide)
chain: ELKTFRLKTRSWAGERSRRELCSR
For B19, the protein stability index (parent: IOH6456_93, c terminus: a fixed tail appended) was 3.35.

B20: RTP4 WT (peptide)
chain: TYWEHWTSQGQVRMRLFGQRCQKC
Work on B20 yielded a protein stability index (parent: IOH10686_13, c terminus: a fixed tail appended) of 1.83.

B21: CDC25B WT (peptide)
chain: KSPIAPCSLDKRVILIFHCEFSSE
For B21, the protein stability index (parent: IOH6456_79, c terminus: a fixed tail appended) was 2.62.

B22: EPB41L3 WT (peptide)
chain: FRFAPNHTKELEDKVIELHKSHRG
Work on B22 yielded a protein stability index (parent: IOH6638_43, c terminus: a fixed tail appended) of 2.13.

B23: RAB22A WT (peptide)
chain: FVEDSFDPNINPTIGASFMTKTVQ
B23 gave a protein stability index (parent: IOH10004_5, c terminus: a fixed tail appended) of 2.26.

B24: CHCHD6 WT (peptide)
chain: MYKLSSEQFHEAASKMESTIKPRR
Work on B24 yielded a protein stability index (parent: IOH6589_29, c terminus: a fixed tail appended) of 3.65.

B25: ZBTB22 WT (peptide)
chain: RPFDCPVCNKKFKMKHHLTEHMKT
B25 gave a protein stability index (parent: IOH10718_86, c terminus: a fixed tail appended) of 2.37.

B26: TRIM43 WT (peptide)
chain: FCDMDKSLLCLLCSNSQEHGAHKH
B26 gave a protein stability index (parent: IOH10304_18, c terminus: a fixed tail appended) of 1.87.

B27: KCNG1 WT (peptide)
chain: LFVTVTAVNLSVSTLPSLREEEEQ
With B27 the protein stability index (parent: IOH6461_40, c terminus: a fixed tail appended) was 2.13.

B28: CDC25B WT (peptide)
chain: FVDILESDLKDDDAVPPGMESLIS
Work on B28 yielded a protein stability index (parent: IOH6456_46, c terminus: a fixed tail appended) of 3.07.

B29: KCNG1 WT (peptide)
chain: AVNLSVSTLPSLREEEEQVRAHAP
With B29 the protein stability index (parent: IOH6461_41, c terminus: a fixed tail appended) was 5.01.

B30: EPB41L3 WT (peptide)
chain: SMQCKVILLDGSEYTCDVEKRSRG
Protein B30 has a protein stability index (parent: IOH6638_19, c terminus: a fixed tail appended) of 2.79.

B31: ZBED3 WT (peptide)
chain: QARLRDVSRREGALGWAPAAPPPL
Work on B31 yielded a protein stability index (parent: IOH6801_33, c terminus: a fixed tail appended) of 3.31.

B32: TRIM43 WT (peptide)
chain: RAQMIRNEYRKLHPVLHKEEKQHL
Protein B32 has a protein stability index (parent: IOH10304_30, c terminus: a fixed tail appended) of 3.05.

B33: ZBTB22 WT (peptide)
chain: FSSSSQEAFAASAVGSGERRGGGP
Protein B33 has a protein stability index (parent: IOH10718_37, c terminus: a fixed tail appended) of 3.33.

B34: ZNF649 WT (peptide)
chain: YQAGKPDALTKLEQGEPLWTLEDE
Work on B34 yielded a protein stability index (parent: IOH7272_9, c terminus: a fixed tail appended) of 4.34.

B35: SPSB1 WT (peptide)
chain: DMRDPTYRPLKQELQGLDYCKPTR
Work on B35 yielded a protein stability index (parent: IOH10100_3, c terminus: a fixed tail appended) of 3.17.

B36: ZBTB22 WT (peptide)
chain: AVLAASSPYFHDQVLLKGMTSISL
For B36, the protein stability index (parent: IOH10718_13, c terminus: a fixed tail appended) was 2.63.

B37: SNX3 WT (peptide)
chain: FLRQLPFRGDDGIFDDNFIEERKQ
B37 gave a protein stability index (parent: IOH7529_17, c terminus: a fixed tail appended) of 3.4.

B38: VAMP4 WT (peptide)
chain: IMALVAAILLLVIIILIVMKYRT
In the case of B38, the protein stability index (parent: IOH7463_24, c terminus: native) is reported as 2.83.

B39: IKZF1 WT (peptide)
chain: HIKLHSGEKPFKCHLCNYACRRRD
In the case of B39, the protein stability index (parent: IOH9679_28, c terminus: a fixed tail appended) is reported as 1.92.

B40: EPB41L3 WT (peptide)
chain: GSKFRYSGRTQAQTRRASALIDRP
For B40, the protein stability index (parent: IOH6638_68, c terminus: a fixed tail appended) was 3.09.

B41: SMARCE1 WT (peptide)
chain: YHNSPAYLAYINAKSRAEAALEEE
Protein B41 has a protein stability index (parent: IOH7424_23, c terminus: a fixed tail appended) of 2.1.

B42: MYBL2 WT (peptide)
chain: VKKSCWTEEEDRIICEAHKVLGNR
Protein B42 has a protein stability index (parent: IOH6886_23, c terminus: a fixed tail appended) of 3.18.

B43: ZBED3 WT (peptide)
chain: GPGFHAGTSALWRHLRSAHRRELE
With B43 the protein stability index (parent: IOH6801_14, c terminus: a fixed tail appended) was 2.28.

B44: ETS2 WT (peptide)
chain: TSGKRYVYRFVCDLQNLLGFTPEE
For B44, the protein stability index (parent: IOH10422_73, c terminus: a fixed tail appended) was 2.7.

B45: VAMP4 WT (peptide)
chain: FLRGPSGPRFGPRNDKIKHVQNQV
With B45 the protein stability index (parent: IOH7463_7, c terminus: a fixed tail appended) was 2.7.

B46: ESR2 WT (peptide)
chain: KSCQACRLRKCYEVGMVKCGSRRE
B46 showed a protein stability index (parent: IOH10714_34, c terminus: a fixed tail appended) of 1.85.

B47: IKZF1 WT (peptide)
chain: RDPFECNMCGYHSQDRYEFSSHIT
B47 showed a protein stability index (parent: IOH9679_75, c terminus: a fixed tail appended) of 1.89.

B48: TRIM43 WT (peptide)
chain: NRFRVEISFHFEVTNHNIRLFEDV
Work on B48 yielded a protein stability index (parent: IOH10304_48, c terminus: a fixed tail appended) of 2.93.

B49: IKZF1 WT (peptide)
chain: YHSQDRYEFSSHITRGEHRFHMS
Work on B49 yielded a protein stability index (parent: IOH9679_77, c terminus: native) of 2.09.

B50: TRIM43 WT (peptide)
chain: NNSWIRKNSTMVNSEDIFLLLCLK
Protein B50 has a protein stability index (parent: IOH10304_60, c terminus: a fixed tail appended) of 2.69.

B51: EPB41L3 WT (peptide)
chain: SELGDYDPDECGSDYISEFRFAPN
For B51, the protein stability index (parent: IOH6638_40, c terminus: a fixed tail appended) was 1.93.

B52: TRIM14 WT (peptide)
chain: YARTPTLDPDTMHARLRLSADRLT
Protein B52 has a protein stability index (parent: IOH6488_45, c terminus: a fixed tail appended) of 2.62.

B53: RTP4 WT (peptide)
chain: AFGWFRCSSCQRSWASAQVQILCH
With B53 the protein stability index (parent: IOH10686_9, c terminus: a fixed tail appended) was 2.29.

From the supplement of paper PMC10567573
